From patent US20170137467A1 (CHROMOTEK, published 2017)
One block for each binder: values may come before it. Square brackets hold non-standard residues; d marks the D form. GABA = NCCCC(=O)O

Legend:
Test in all cases: positional peptide library pulldown on immobilised Nb, LC-MS of supernatant; signal ratio to control GFP-Nb (1 = not captured, near 0 = captured)
BC2T R3F = biological target: T1, BC2T R3F
T1 construct: positional scanning library member
T1 peptide: Ac-PDFKAAVSHWQQ-NH2
Summary of the method: (§1)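 Unbound peptide left in supernatant after 1 h pulldown in PBS/0.01% CHAPS measured by reversed-phase LC-MS (8–30% eluent B gradient, 20 min).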

BC2T D2W = biological target: T2, BC2T D2W
T2 construct: positional scanning library member
T2 peptide: Ac-PWRKAAVSHWQQ-NH2
Summary of the method: as §1

BC2T V7W = biological target: T3, BC2T V7W
T3 construct: positional scanning library member
T3 peptide: Ac-PDRKAAWSHWQQ-NH2
Summary of the method: as §1

BC2T D2S = biological target: T4, BC2T D2S
T4 construct: positional scanning library member
T4 peptide: Ac-PSRKAAVSHWQQ-NH2
Summary of the method: as §1

BC2T P1T = biological target: T5, BC2T P1T
T5 construct: positional scanning library member
T5 peptide: Ac-TDRKAAVSHWQQ-NH2
Summary of the method: as §1

BC2T A5T = biological target: T6, BC2T A5T
T6 construct: positional scanning library member
T6 peptide: Ac-PDRKTAVSHWQQ-NH2
Summary of the method: as §1

BC2T A5N = biological target: T7, BC2T A5N
T7 construct: positional scanning library member
T7 peptide: Ac-PDRKNAVSHWQQ-NH2
Summary of the method: as §1

BC2T A5Q = biological target: T8, BC2T A5Q
T8 construct: positional scanning library member
T8 peptide: Ac-PDRKQAVSHWQQ-NH2
Summary of the method: as §1

BC2T K4Y = biological target: T9, BC2T K4Y
T9 construct: positional scanning library member
T9 peptide: Ac-PDRYAAVSHWQQ-NH2
Summary of the method: as §1

BC2T V7Y = biological target: T10, BC2T V7Y
T10 construct: positional scanning library member
T10 peptide: Ac-PDRKAAYSHWQQ-NH2
Summary of the method: as §1

BC2T R3P = biological target: T11, BC2T R3P
T11 construct: positional scanning library member
T11 peptide: Ac-PDPKAAVSHWQQ-NH2
Summary of the method: as §1

BC2T V7C(Abu) = biological target: T12, BC2T V7C(Abu) (also: Abu described as gamma-amino butyric acid)
T12 construct: positional scanning library member
T12 peptide: Ac-PDRKAA[GABA]SHWQQ-NH2
Summary of the method: as §1

BC2T A5R = biological target: T13, BC2T A5R
T13 construct: positional scanning library member
T13 peptide: Ac-PDRKRAVSHWQQ-NH2
Summary of the method: as §1

BC2T A5P = biological target: T14, BC2T A5P
T14 construct: positional scanning library member
T14 peptide: Ac-PDRKPAVSHWQQ-NH2
Summary of the method: as §1

BC2T R3H = biological target: T15, BC2T R3H
T15 construct: positional scanning library member
T15 peptide: Ac-PDHKAAVSHWQQ-NH2
Summary of the method: as §1

BC2T P1D = biological target: T16, BC2T P1D
T16 construct: positional scanning library member
T16 peptide: Ac-DDRKAAVSHWQQ-NH2
Summary of the method: as §1

BC2T A5D = biological target: T17, BC2T A5D
T17 construct: positional scanning library member
T17 peptide: Ac-PDRKDAVSHWQQ-NH2
Summary of the method: as §1

BC2T A6P = biological target: T18, BC2T A6P
T18 construct: positional scanning library member
T18 peptide: Ac-PDRKAPVSHWQQ-NH2
Summary of the method: as §1

BC2T P1E = biological target: T19, BC2T P1E
T19 construct: positional scanning library member
T19 peptide: Ac-EDRKAAVSHWQQ-NH2
Summary of the method: as §1

BC2T A6E = biological target: T20, BC2T A6E
T20 construct: positional scanning library member
T20 peptide: Ac-PDRKAEVSHWQQ-NH2
Summary of the method: as §1

BC2T S8E = biological target: T21, BC2T S8E
T21 construct: positional scanning library member
T21 peptide: Ac-PDRKAAVEHWQQ-NH2
Summary of the method: as §1

ratio (BC2T R3F): 1
ratio (BC2T D2W): 0.1
ratio (BC2T V7W): 0.2
ratio (BC2T D2S): 0.2
ratio (BC2T P1T): 0.6
ratio (BC2T A5T): 0.1
ratio (BC2T A5N): 0.3
ratio (BC2T A5Q): 0.2
ratio (BC2T K4Y): 0.3
ratio (BC2T V7Y): 0.2
ratio (BC2T R3P): 1
ratio (BC2T V7C(Abu)): 0.3
ratio (BC2T A5R): 0
ratio (BC2T A5P): 0.2
ratio (BC2T R3H): 0.5
ratio (BC2T P1D): 0.8
ratio (BC2T A5D): 0.9
ratio (BC2T A6P): 1.1
ratio (BC2T P1E): 0.8
ratio (BC2T A6E): 1.1
B1: BC2-NbR106E (VHH)
VHH: QVQLVESGGGLVQPGGSLTLSCTASGFTLDHYDIGWFRQAPGKEREGVSCINNSDDDTYYADSVKGRFTIFMDNAKDTVYLQMNSLKPEDTAIYYCAEARGCKRGEYEYDFWGQGTQVTVSS
notes: headlock mutant of BC2-Nb; immobilised on beads in this assay

B2: BC2 nanobody (VHH)
VHH: QVQLVESGGGLVQPGGSLTLSCTASGFTLDHYDIGWFRQAPGKEREGVSCINNSDDDTYYADSVKGRFTIFMDNAKDTVYLQMNSLKPEDTAIYYCAEARGCKRGRYEYDFWGQGTQVTVSS
notes: immobilised on beads in this assay; also called BC2-Nb; BC2 nanotrap (immobilised)
ratio (BC2T S8E): 0.7
